pIC50: −log10 of the molar value. No end group written: not given here.
Tests used:
Assay type in all cases: biochemical
thrombin = thrombin (Homo sapiens, UniProt P00734); test: clotting of purified fibrinogen by thrombin
APC = APC (Homo sapiens, UniProt P04070); test: APTT and Xa-1-stage coagulation assays, inhibition of APC anticoagulant activity; set-up: Protein C consists of a 155 amino acid residue light chain and a 262 amino acid residue heavy chain; from tissue; host or cells: human plasma factor IX concentrate
Experimental: The effect of the synthetic peptides on APC anticoagulant activity were determined using the APTT assay in the presence of either normal citrate anticoagulated plasma (NHP) or protein S depleted plasma (PSDP). The assays were performed essentially as described. See Marlar et al., Blood, 59:1067-1072 […]; Suzuki et al., J. Biol. Chem., 258:163-168 (1983); Gruber et al., Blood, 73:639-642 (1989); Ohlin et al., Biochem., 29:644-651 (1990). NHP was purchased from George King Bio-Medical, Inc. (Overland Park, Kans.). PSDP was prepared from a normal human citrate-anticoagulated plasma pool from ten healthy donors. Protein S was immunodepleted from the NHP by immunoaffinity chromatography of NHP over an anti-protein S antibody column to form PSDP. The anti-protein S antibody column was prepared by coupling 100 mg of a monoclonal, high-affinity, calcium-independent anti-PS antibody, designated S7, to 30 ml of CNBr-activated Sepharose 4B (Pharmacia) as described in Example 2cl).
For the APTT assay, APC was prepared as described in Example 2c2). […] The concentration of the APC used in the assay was initially optimized with respect to the sensitivity of the assay towards APC-induced prolongation of clotting time compared to clotting time without APC.
Once the optimal concentration of APC was determined, peptides from the heavy and light chains of PC and control scrambled peptides listed below in Example 5a2) in Tables 6 and 7 were then separately admixed for a final concentration of 500 μM with 10 nM APC in 100 μl of TBS-BSA at pH 7.4 to form peptide-APC admixtures. Peptides were prepared as described in Example 1. The resulting admixtures were maintained for ten minutes at 37° C. Separate aliquots of peptides maintained under the same conditions in the absence of APC served as controls for the inhibitory effect of synthetic peptides on APC anticoagulant activity. After the maintenance period, 100 μl of NHP and 100 μl APTT-reagent Thrombosil (Ortho Diagnostics, Raritan, N.J.) were admixed into each peptide admixture and maintained for 200 seconds at 37° C. to form a pre-coagulation admixture. In some experiments, PSDP was used in the place of NHP to determine the effect of Protein S on the assay system. Coagulation was then initiated by the admixture of 100 μl of 30 mM CaCl2 in TBS prewarmed to 37° C. to each of the pre-coagulation admixtures. The time for clot formation was measured by an Electra 700 Automatic Coagulation Timer (Medical Laboratory Automation, Inc., Mount Vernon, N.Y.). Each peptide's effect was determined in duplicate.
For peptides at a concentration of 500 μM that inhibited at least 50% of APC anticoagulant activity, analysis of dose-response was subsequently conducted.
For testing the inhibition of the synthetic peptides on APC activity described above, Xa-1-stage coagulation assays were also performed as described. See Seegers et al., Thrombosis Res., 13:233-243 (1978); Marlar et al., supra; and Walker et al., J. Biol. Chem., 265:1484-1489 (1990).

Factor Xa = target: T1, Factor Xa (Homo sapiens, UniProt P00742); test: Factor Xa amidolytic activity towards chromogenic substrates
T1 construct: purchased Enzyme Research Laboratories, Southbend, Ind
Experimental: To determine the effect of the APC-inhibiting peptides, PC311-325 and PC142-155, on the amidolytic activity of Factor Xa, amidolytic assays as described for APC in Example 5a3 were performed using 0.15 nM Factor Xa in the presence of increasing amounts of peptide. Peptide PC311-325 ranged in concentration from 0 to 100 μM whereas peptide PC142-155 ranged in concentration from 0 to 50 μM.
For the assay, 100 μl of 0.15 nM factor Xa, prepared in Example 5a5) were admixed with separate aliquots of either peptide prepared in TBS-BSA at pH 7.4 containing 0.02% NaN3 and 2 mM CaCl2 to form APC-peptide admixtures. After maintenance of the admixtures for 30 minutes at 37° C., 50 μl of 2.4 mM S-2222 in the same buffer were admixed to initiate the amidolytic reaction. The hydrolysis of the substrate was measured as described before.

[1] = mean values of APTT and Xa-1 stage assays, NHP, control peptide at 500 μM (±10%)

Chain of APC (P04070 43-197 limits assumed): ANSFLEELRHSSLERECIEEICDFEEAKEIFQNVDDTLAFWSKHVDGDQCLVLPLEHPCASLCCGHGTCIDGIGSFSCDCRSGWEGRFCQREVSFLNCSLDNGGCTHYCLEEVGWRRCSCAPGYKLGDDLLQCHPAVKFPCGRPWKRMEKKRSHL
Chain of APC (P04070 212-450 limits assumed): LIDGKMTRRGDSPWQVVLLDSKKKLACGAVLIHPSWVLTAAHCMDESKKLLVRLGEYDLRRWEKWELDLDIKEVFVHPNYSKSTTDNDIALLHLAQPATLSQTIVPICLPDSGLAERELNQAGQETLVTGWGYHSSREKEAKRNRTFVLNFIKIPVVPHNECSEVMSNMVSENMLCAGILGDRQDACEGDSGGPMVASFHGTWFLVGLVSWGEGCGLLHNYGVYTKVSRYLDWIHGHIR
T1 sequence (P00742 41-179 limits assumed): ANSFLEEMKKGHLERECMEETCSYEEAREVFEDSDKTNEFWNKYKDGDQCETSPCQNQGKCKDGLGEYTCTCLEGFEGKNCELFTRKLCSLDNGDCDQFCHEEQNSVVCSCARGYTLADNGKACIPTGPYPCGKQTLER
T1 sequence (P00742 235-488 limits assumed): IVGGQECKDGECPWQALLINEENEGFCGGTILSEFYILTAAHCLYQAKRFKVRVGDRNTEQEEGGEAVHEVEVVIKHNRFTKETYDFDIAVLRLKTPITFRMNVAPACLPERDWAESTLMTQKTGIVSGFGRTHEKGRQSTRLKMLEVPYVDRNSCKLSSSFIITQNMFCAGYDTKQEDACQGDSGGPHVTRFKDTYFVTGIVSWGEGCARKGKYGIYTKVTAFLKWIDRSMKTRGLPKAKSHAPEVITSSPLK

Substance | effect on the clotting of purified fibrinogen by thrombin (thrombin) | 90% inhibition of APC anticoagulant activity (APC; APTT and Xa-1-stage assays in NHP and PSDP) | pIC50 (APC; APTT and Xa-1-stage assays in NHP and PSDP, read-out: 50% inhibition of APC anticoagulant activity) | effect on Factor Xa amidolytic activity towards chromogenic substrates (Factor Xa) | IC50 (concentration of peptide that inhibits 50% of APC anticoagulant activity) (APC; [1]) | IC90 ** μM (concentration of peptide that inhibits 90% of APC anticoagulant activity) (APC; [1]) | effect on APC anticoagulant activity (APC; various concentrations up to 500 μM peptide)
KRNRTFVLNFIKIPV-NH2 [PC311-325, Lys-Arg-Asn-Arg-Thr-Phe-Val-Leu-Asn-Phe-Ile-Lys-Ile-Pro-Val] | no effect | approximately 50 μM | 4.70 to 5.15 | no significant effect |  |  | 
MHKLREGKWRPKSR [Scrambled peptide, reference compound] | no effect |  |  | no significant effect |  |  | 
VKFTIRVFNPRNLKI [Control Peptide, reference compound] |  |  |  |  | no effect | no effect | no significant effect

From patent publication US5968751A, “Method for detecting the presence of protein C antibody in a fluid sample” (The Scripps Research Institute, priority 1997, dated 1999)
